Publication PMC8666670, “Malonyl-acyl carrier protein decarboxylase activity promotes fatty acid and cell envelope biosynthesis in Proteobacteria” (The Journal of Biological Chemistry, 2021)

B1: MadA^C, carboxy-terminal hot dog domain of E. coli MadA (domain or fragment, UniProt P0ADQ2 171-329, looked up)
chain: GDWCAQLQQAWYEHIPLSEKMGVRIQQYTGQKFITTMPETGNQNPHHTLFAGSLFSLATLTGWGLIWLMLRERHLGGTIILADAHIRYSKPISGKPHAVADLGALSGDLDRLARGRKARVQMQVEIFGDETPGAVFEGTYIVLPAKPFGPYEEGGNEEE
notes: MadA (YiiD) of E. coli, amino acids 171 to 329, amplified from Top10 genomic DNA
B2: acetyl-acyl carrier protein (acetyl-ACP) (natural protein, UniProt P0A6A8 1-78, looked up)
chain: MSTIEERVKKIIGEQLGVKQEEVTNNASFVEDLGADSLDTVELVMALEEEFDTEIPDEEAEKITTVQAAIDYINGHQA
modifications: prosthetic group with attached acetyl chain (acetyl thioester), made from apo-ACP and acetyl-CoA with [ACP]synthase
B3: acyl carrier protein (ACP) (natural protein, UniProt P0A6A8 1-78, looked up)
chain: B2 chain
notes: acyl carrier protein; The ACP disulfide dimers seen in the sedimentation analysis imply that at least part of the preparation carries the phosphopantetheine thiol (holo-ACP)
B4: MadA(M17A), malonyl-ACP decarboxylase (yiiD gene product) of E. coli (enzyme, UniProt P0ADQ2 1-329, looked up)
chain: MSQLPGLSRETRESIAAYHLRVPQTEEELERYYQFRWEMLRKPLHQPKGSERDAWDAMAHHQMVVDEQGNLVAVGRLYINADNEASIRFMAVHPDVQDKGLGTLMAMTLESVARQEGVKRVTCSAREDAVEFFAKLGFVNQGEITTPTTTPIRHFLMIKPVATLDDILHRGDWCAQLQQAWYEHIPLSEKMGVRIQQYTGQKFITTMPETGNQNPHHTLFAGSLFSLATLTGWGLIWLMLRERHLGGTIILADAHIRYSKPISGKPHAVADLGALSGDLDRLARGRKARVQMQVEIFGDETPGAVFEGTYIVLPAKPFGPYEEGGNEEE
notes: YiiD (MadA) of E. coli, amplified from Top10 genomic DNA, plasmid pPJ604 with M17A to remove a second start site; Cleavage of the His6 tag is reported only for ACP and MadA^C; MadA^C is said to end at residue 329, so the whole protein probably spans 1-329; also called MadA(M17A) mutant

Assays:
[1] = biological target: the molecule itself; test: SEC; gel filtration chromatography of the purified recombinant protein
[2] = biological target: GlmU, glucosamine-1-phosphate N-acetyl transferase/N-acetyl-glucosamine-1-phosphate uridylyltransferase of E. … (E. coli, UniProt P0ACC7 1-456); test: cell-based or functional assay
[3] = biological target: B4; test: AUC; sedimentation analysis (methods: sedimentation velocity, 50,000 rpm, interference optics), 0.02 M Tris pH 7.5, 0.5 M NaCl, 20 °C, no reducing agents; conditions: both partners purified
[4] = biological target: the molecule itself; test: as above

Sequence of GlmU, glucosamine-1-phosphate N-acetyl transferase/N-acetyl-glucosamine-1-phosphate uridylyltransferase of E. … (P0ACC7 whole entry): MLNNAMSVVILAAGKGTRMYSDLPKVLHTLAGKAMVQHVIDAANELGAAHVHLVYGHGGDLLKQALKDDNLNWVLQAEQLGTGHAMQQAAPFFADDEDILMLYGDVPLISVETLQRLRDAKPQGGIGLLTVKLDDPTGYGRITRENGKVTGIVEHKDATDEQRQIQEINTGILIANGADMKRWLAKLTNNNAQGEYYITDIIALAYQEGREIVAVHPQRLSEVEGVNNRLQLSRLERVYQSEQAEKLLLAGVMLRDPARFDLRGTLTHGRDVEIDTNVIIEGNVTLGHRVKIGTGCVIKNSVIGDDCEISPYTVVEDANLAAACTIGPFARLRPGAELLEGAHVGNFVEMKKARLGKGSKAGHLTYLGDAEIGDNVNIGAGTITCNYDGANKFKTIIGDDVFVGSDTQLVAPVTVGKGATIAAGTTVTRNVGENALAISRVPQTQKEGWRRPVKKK

Binder: B1
stoichiometry N [1]: 2

Binder: B2
apparent KM of the GlmU acetyltransferase half reaction for [^14C]acetyl-ACP (radiochemical TLC assay, 0–32 μM acetyl-ACP) [2]: 20 µM

Binder: B3
stoichiometry N [3]: 2 ACP per MadA dimer

Binder: B4
stoichiometry N [4]: 2
